From paper PMC9065009, “Mechanistic insights of ABC importer HutCD involved in heme internalization by Vibrio cholerae” (Scientific Reports, 2022)

Tests used:
[1] = biological target: T1, HutD (Vibrio cholerae, UniProt Q9KL34); assay: biochemical
T1 construct: gene hmuV

[2] = biological target: HutD; assay: SEC; Superdex 200 Increase 10/300 GL; 250 uM HutD preincubated 1.5 h at 4 °C with 500 uM AMP.PNP; 500 ul injected; 50 mM Tris-HCl pH 8.0, 300 mM NaCl, 5 mM MgCl2; 0.5 ml/min; calibrated with molecular weight standards
[3] = biological target: HutD; assay: cross-linking

HutD (enzyme), sequence (O52047 whole entry): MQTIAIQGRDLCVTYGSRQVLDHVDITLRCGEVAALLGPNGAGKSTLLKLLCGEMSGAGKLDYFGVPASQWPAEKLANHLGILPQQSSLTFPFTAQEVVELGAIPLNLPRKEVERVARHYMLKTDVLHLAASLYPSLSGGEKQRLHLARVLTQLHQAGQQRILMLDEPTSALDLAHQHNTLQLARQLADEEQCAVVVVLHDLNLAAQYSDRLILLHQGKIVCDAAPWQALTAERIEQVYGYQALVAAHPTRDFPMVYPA
T1 sequence (Q9KL34 whole entry, looked up): as the sequence (O52047 whole entry) above

Compound	Kd [1] [µM]	stoichiometry N [2]	stoichiometry N [3]
Nc1ncnc2c1ncn2[C@@H]1O[C@H](COP(=O)(O)OP(=O)(O)NP(=O)(O)O)[C@@H](O)[C@H]1O [AMP.PNP]	94 ± 0.024	–	–
HutD (enzyme)	–	2	2
